Measurements from US20160024487.

Key:
[1] = molecular target: T1, Lys(Dnp)-ASTAVVIAGRIVGG-Lys(Abz)
T1 chain: KASTAVVIAGRIVGGK

[2] = molecular target: T2, Lys(Dnp)-ATLDPRIVGG-Lys(Abz)
T2 chain: KATLDPRIVGGK

[3] = molecular target: T3, Lys(Dnp)-ATNATDIPRIVGG-Lys(Abz)
T3 chain: KATNATDIPRIVGGK

[4] = molecular target: T4, Lys(Dnp)-ATNATDKPRIVGG-Lys(Abz)
T4 chain: KATNATDKPRIVGGK

[5] = molecular target: T5, Lys(Dnp)-ATNATDPPRIVGG-Lys(Abz)
T5 chain: KATNATDPPRIVGGK

[6] = molecular target: T6, Lys(Dnp)-ATNATDSPRIVGG-Lys(Abz)
T6 chain: KATNATDSPRIVGGK

[7] = molecular target: T7, Lys(Dnp)-ATNATDWPRIVGG-Lys(Abz)
T7 chain: KATNATDWPRIVGGK

[8] = molecular target: T8, Lys(Dnp)-ATNATENPRIVGG-Lys(Abz)
T8 chain: KATNATENPRIVGGK

[9] = molecular target: T9, Lys(Dnp)-ATNATKPPRIVGG-Lys(Abz)
T9 chain: KATNATKPPRIVGGK

[10] = molecular target: T10, Lys(Dnp)-ATNATLPPRIVGG-Lys(Abz)
T10 chain: KATNATLPPRIVGGK

[11] = molecular target: T11, Lys(Dnp)-ATNATNDPRIVGG-Lys(Abz)
T11 chain: KATNATNDPRIVGGK

[12] = molecular target: T12, Lys(Dnp)-ATNATNPPRIVGG-Lys(Abz)
T12 chain: KATNATNPPRIVGGK

[13] = molecular target: T13, Lys(Dnp)-ATNATQPPRIVGG-Lys(Abz)
T13 chain: KATNATQPPRIVGGK

[14] = molecular target: T14, Lys(Dnp)-ATNATRQPRIVGG-Lys(Abz)
T14 chain: KATNATRQPRIVGGK

[15] = molecular target: T15, Lys(Dnp)-DFLAEGGGPRIVGG-Lys(Abz)
T15 chain: KDFLAEGGGPRIVGGK

[16] = molecular target: T16, Lys(Dnp)-DFLAEGGGVRIVGG-Lys(Abz)
T16 chain: KDFLAEGGGVRIVGGK

[17] = molecular target: T17, Lys(Dnp)-DNEEGFFSARIVGG-Lys(Abz)
T17 chain: KDNEEGFFSARIVGGK

[18] = molecular target: T18, Lys(Dnp)-DQVTVAMTPRIVGG-Lys(Abz)
T18 chain: KDQVTVAMTPRIVGGK

[19] = molecular target: T19, Lys(Dnp)-EDQEDQVDPRIVGG-Lys(Abz)
T19 chain: KEDQEDQVDPRIVGGK

[20] = molecular target: T20, Lys(Dnp)-EDSDRAIEGRIVGG-Lys(Abz)
T20 chain: KEDSDRAIEGRIVGGK

[21] = molecular target: T21, Lys(Dnp)-HTHHAPLSPRIVGG-Lys(Abz)
T21 chain: KHTHHAPLSPRIVGGK

[22] = molecular target: T22, Lys(Dnp)-LSKNNAIEPRIVGG-Lys(Abz)
T22 chain: KLSKNNAIEPRIVGGK

[23] = molecular target: T23, Lys(Dnp)-NESTTKIKPRIVGG-Lys(Abz)
T23 chain: KNESTTKIKPRIVGGK

[24] = molecular target: T24, Lys(Dnp)-NLAKPTLPIKIVGG-Lys(Abz)
T24 chain: KNLAKPTLPIKIVGGK

[25] = molecular target: T25, Lys(Dnp)-NRLAAALGIRIVGG-Lys(Abz)
T25 chain: KNRLAAALGIRIVGGK

[26] = molecular target: T26, Lys(Dnp)-PDNIAAWYLRIVGG-Lys(Abz)
T26 chain: KPDNIAAWYLRIVGGK

[27] = molecular target: T27, Lys(Dnp)-QISNDTVSPRIVGG-Lys(Abz)
T27 chain: KQISNDTVSPRIVGGK

[28] = molecular target: T28, Lys(Dnp)-RGDSVVYGLRIVGG-Lys(Abz)
T28 chain: KRGDSVVYGLRIVGGK

[29] = molecular target: T29, Lys(Dnp)-SEYQTFFNPRIVGG-Lys(Abz)
T29 chain: KSEYQTFFNPRIVGGK

[30] = molecular target: T30, Lys(Dnp)-STPSILPAPRIVGG-Lys(Abz)
T30 chain: KSTPSILPAPRIVGGK

[31] = molecular target: T31, Lys(Dnp)-TNATLDPRIVGG-Lys(Abz)
T31 chain: KTNATLDPRIVGGK

[32] = molecular target: T32, Lys(Dnp)-TVELQGVVPRIVGG-Lys(Abz)
T32 chain: KTVELQGVVPRIVGGK

[33] = molecular target: T33, Lys(Dnp)-YDEDENQSPRIVGG-Lys(Abz)
T33 chain: KYDEDENQSPRIVGGK

B1: Human plasma purified Factor Xa (Molecular Innovations, Inc) (protein)
chain 1: ANSFLEEMKKGHLERECMEETCSYEEAREVFEDSDKTNEFWNKYKDGDQCETSPCQNQGKCKDGLGEYTCTCLEGFEGKNCELFTRKLCSLDNGDCDQFCHEEQNSVVCSCARGYTLADNGKACIPTGPYPCGKQTLERRKR
chain 2: IVGGQECKDGECPWQALLINEENEGFCGGTILSEFYILTAAHCLYQAKRFKVRVGDRNTEQEEGGEAVHEVEVVIKHNRFTKETYDFDIAVLRLKTPITFRMNVAPACLPERDWAESTLMTQKTGIVSGFGRTHEKGRQSTRLKMLEVPYVDRNSCKLSSSFIITQNMFCAGYDTKQEDACQGDSGGPHVTRFKDTYFVTGIVSWGEGCARKGKYGIYTKVTAFLKWIDRSMKTRGLPKAKSHAPEVITSSPLK
FXa kcat/KM [1]: 2.1 M⁻¹ s⁻¹ | FXa kcat/KM [2]: 940 M⁻¹ s⁻¹ | FXa kcat/KM [3]: 41 M⁻¹ s⁻¹ | FXa kcat/KM [4]: 11 M⁻¹ s⁻¹ | FXa kcat/KM [5]: 1.6 M⁻¹ s⁻¹ | FXa kcat/KM [6]: 4.4 M⁻¹ s⁻¹ | FXa kcat/KM [7]: 7.2 M⁻¹ s⁻¹ | FXa kcat/KM [8]: 3.3 M⁻¹ s⁻¹ | FXa kcat/KM [9]: 8.7 M⁻¹ s⁻¹ | FXa kcat/KM [10]: 1.6 M⁻¹ s⁻¹ | FXa kcat/KM [11]: 30 M⁻¹ s⁻¹ | FXa kcat/KM [12]: 2.9 M⁻¹ s⁻¹ | FXa kcat/KM [13]: 9.5 M⁻¹ s⁻¹ | FXa kcat/KM [14]: 4500 M⁻¹ s⁻¹ | FXa kcat/KM [15]: 5.8 M⁻¹ s⁻¹ | FXa kcat/KM [16]: 3.4 M⁻¹ s⁻¹ | FXa kcat/KM [17]: 230 M⁻¹ s⁻¹ | FXa kcat/KM [18]: 470 M⁻¹ s⁻¹ | FXa kcat/KM [19]: 13 M⁻¹ s⁻¹ | FXa kcat/KM [20]: 1900 M⁻¹ s⁻¹ | FXa kcat/KM [21]: 100 M⁻¹ s⁻¹ | FXa kcat/KM [22]: 1000 M⁻¹ s⁻¹ | FXa kcat/KM [23]: 36 M⁻¹ s⁻¹ | FXa kcat/KM [24]: 3 M⁻¹ s⁻¹ | FXa kcat/KM [25]: 350 M⁻¹ s⁻¹ | FXa kcat/KM [26]: 15 M⁻¹ s⁻¹ | FXa kcat/KM [27]: 340 M⁻¹ s⁻¹ | FXa kcat/KM [28]: 1.7 M⁻¹ s⁻¹ | FXa kcat/KM [29]: 140 M⁻¹ s⁻¹ | FXa kcat/KM [30]: 230 M⁻¹ s⁻¹ | FXa kcat/KM [31]: 860 M⁻¹ s⁻¹ | FXa kcat/KM [32]: 100 M⁻¹ s⁻¹ | FXa kcat/KM [33]: 320 M⁻¹ s⁻¹
